According to US20240382587A1 (TRUSTEES OF INDIANA UNIVERSITY, published 2024):

Target: T1, recombinant human B domain deleted (BDD)-FVIII (Xyntha) (human, UniProt P00451 20-2351)
T1 sequence (looked up): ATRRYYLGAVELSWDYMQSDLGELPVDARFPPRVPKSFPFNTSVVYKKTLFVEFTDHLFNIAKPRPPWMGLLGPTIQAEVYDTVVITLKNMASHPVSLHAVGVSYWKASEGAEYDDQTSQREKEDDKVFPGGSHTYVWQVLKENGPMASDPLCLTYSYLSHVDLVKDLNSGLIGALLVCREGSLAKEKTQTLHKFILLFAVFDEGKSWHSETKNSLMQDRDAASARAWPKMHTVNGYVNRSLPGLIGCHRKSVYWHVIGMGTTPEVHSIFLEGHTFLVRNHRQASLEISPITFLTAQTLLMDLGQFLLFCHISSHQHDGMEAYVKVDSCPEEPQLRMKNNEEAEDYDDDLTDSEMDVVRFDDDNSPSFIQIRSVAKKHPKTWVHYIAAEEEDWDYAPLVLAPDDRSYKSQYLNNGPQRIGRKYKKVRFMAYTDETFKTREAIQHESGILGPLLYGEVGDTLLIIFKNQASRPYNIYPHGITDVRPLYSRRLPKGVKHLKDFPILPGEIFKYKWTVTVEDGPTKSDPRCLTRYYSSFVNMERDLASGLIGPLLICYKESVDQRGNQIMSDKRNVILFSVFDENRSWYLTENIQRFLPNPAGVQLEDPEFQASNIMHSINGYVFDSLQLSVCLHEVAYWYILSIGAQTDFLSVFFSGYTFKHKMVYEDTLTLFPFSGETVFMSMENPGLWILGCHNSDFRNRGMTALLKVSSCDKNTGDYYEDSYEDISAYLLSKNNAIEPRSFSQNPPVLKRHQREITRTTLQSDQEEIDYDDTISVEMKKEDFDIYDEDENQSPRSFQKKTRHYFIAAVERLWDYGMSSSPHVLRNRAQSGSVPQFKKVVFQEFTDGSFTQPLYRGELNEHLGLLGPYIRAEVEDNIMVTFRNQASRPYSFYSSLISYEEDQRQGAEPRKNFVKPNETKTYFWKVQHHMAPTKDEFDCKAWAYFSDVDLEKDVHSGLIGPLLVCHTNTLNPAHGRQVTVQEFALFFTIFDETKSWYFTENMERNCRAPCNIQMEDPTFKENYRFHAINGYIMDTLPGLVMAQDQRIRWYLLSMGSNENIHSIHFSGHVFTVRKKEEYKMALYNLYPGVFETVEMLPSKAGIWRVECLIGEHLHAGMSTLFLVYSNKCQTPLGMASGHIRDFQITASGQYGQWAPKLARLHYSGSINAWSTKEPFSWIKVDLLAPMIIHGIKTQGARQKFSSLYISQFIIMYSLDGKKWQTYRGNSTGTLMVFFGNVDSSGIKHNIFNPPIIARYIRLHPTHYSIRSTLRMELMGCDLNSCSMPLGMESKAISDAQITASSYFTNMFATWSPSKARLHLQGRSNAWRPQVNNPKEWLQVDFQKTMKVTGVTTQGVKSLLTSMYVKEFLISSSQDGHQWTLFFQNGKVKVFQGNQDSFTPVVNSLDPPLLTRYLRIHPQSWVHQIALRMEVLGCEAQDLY
Test: cell-based or functional assay

CTLA4 expression in TRUC Tregs in vitro: 5 fold
B1: FVIII TRUC (TCR fusion construct: BO2C11 FVIII scFv fused to the N-terminus of murine CD3 epsilon) (scFv)
chain: EIALTQSPGTLSLSPGERATLSCRASQSFSSSYLAWYQQKPGQAPRLLIYGASTRATGIPDRFSGSGSGTDFTLTISRLEPEDFAVYYCQKYGTSAITFGQGTRLEIKGGGGGSGGGGSGGGGSQVQLVQSGAEVKKPGASVKVSCKVSGYTLTELPVHWVRQAPGKGLEWVGSFDPESGESIYAREFQGSVTMTADTSTDIAYMELSSLRSDDTAVYYCAVPDPDAFDIWGQGTMVTVSSGGGGSGGGGSGGGGSDAENIEYKVSISGTSVELTCPLDSDENLKWEKNGQELPQKHDKHLVLQDFSEVEDSGYYVCYTPASNKNTYLYLKARVCEYCVEVDLTAVAIIIIVDICITLGLLMVIYYWSKNRKAKAKPVTRGTGAGSRPRGQNKERPPPVPNPDYEPIRKGQRDLYSGLNQRAV
